US20040175816

Target: T1, OkrAI restriction endonuclease (Oceanospirillum kriegii) (UniProt E2JKI3)
T1 sequence: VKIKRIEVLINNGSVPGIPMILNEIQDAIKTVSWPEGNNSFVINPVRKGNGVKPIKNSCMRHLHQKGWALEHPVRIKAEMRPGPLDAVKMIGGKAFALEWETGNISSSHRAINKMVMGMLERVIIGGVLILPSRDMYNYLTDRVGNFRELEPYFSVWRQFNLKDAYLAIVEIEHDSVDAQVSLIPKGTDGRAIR
Experiment: cleavage_in_vitro
Details: approximate yield, assayed in cell extract; isoschizomer of BamHI

lambda phage DNA
activity (units per gram wet cells): 5e+06
